According to patent US6835382B2, “Ii peptide therapeutics to enhance antigen presentation” (University of Massachusetts, priority 1996, dated 2004):
Non-standard residues stand in square brackets, D forms with d. Cit = NC(=O)NCCC[C@H](N)C(=O)O; Orn = NCCC[C@H](N)C(=O)O

Target: T1, murine E^d MHC class II allele (Mus musculus, UniProt P01904+P01915)
T1 sequence (P01904 26-255): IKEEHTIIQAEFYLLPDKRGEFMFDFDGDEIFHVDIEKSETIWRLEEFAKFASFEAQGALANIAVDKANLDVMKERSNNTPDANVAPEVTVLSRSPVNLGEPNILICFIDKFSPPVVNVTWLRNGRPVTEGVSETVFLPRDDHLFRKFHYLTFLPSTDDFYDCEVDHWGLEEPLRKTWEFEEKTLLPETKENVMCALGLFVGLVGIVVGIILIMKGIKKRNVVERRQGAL
T1 sequence (P01915 27-264 limits assumed): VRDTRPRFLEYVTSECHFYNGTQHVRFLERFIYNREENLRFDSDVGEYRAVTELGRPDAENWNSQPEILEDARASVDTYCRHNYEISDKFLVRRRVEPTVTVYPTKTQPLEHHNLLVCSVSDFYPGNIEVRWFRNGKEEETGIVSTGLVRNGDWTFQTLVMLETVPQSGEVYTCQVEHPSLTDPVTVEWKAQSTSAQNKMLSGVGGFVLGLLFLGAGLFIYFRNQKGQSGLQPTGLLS
Assay: processed antigen assay, E^d allele (APC pulsed with native HEL)
Format: cell-based
Design: The A20 and CH27 B cell lymphoma lines express H-2^d and H-2^k alleles, respectively; endogenous in cells; host or cells: A20 B cell lymphoma (mitomycin C-treated or paraformaldehyde-fixed)
Conditions: AE peptide 64 μM; for T cell response relative to baseline (None = 1.00), E^d: Table 31; for T cell response relative to baseline (None = 1.0), 5 μM HEL E^d, first value / T cell response relative to baseline (None = 1.0), 5 μM HEL E^d, second value / T cell response relative to baseline (None = 1.0), 10 μM HEL E^d, first value / T cell response relative to baseline (None = 1.0), 10 μM HEL E^d, second value / T cell response relative to baseline (None = 1.0), 20 μM HEL E^d, first value / T cell response relative to baseline (None = 1.0), 20 μM HEL E^d, second value: Table 29; for T cell response relative to baseline (None = 1.0), 5 μM HEL E^d, first value / T cell response relative to baseline (None = 1.0), 5 μM HEL E^d, second value: native HEL prepulse 5 μM; for T cell response relative to baseline (None = 1.0), 5 μM HEL E^d, first value / T cell response relative to baseline (None = 1.0), 10 μM HEL E^d, first value / T cell response relative to baseline (None = 1.0), 20 μM HEL E^d, first value: supernatant dilution 1:4 (first value); for T cell response relative to baseline (None = 1.0), 5 μM HEL E^d, second value / T cell response relative to baseline (None = 1.0), 10 μM HEL E^d, second value / T cell response relative to baseline (None = 1.0), 20 μM HEL E^d, second value: supernatant dilution 1:8 (second value)
Procedure: In a third type of assay, the “processed antigen assay”, certain of the AE101 series of peptides inhibit stimulation of specific T cell hybridomas by antigenic peptides which are derived from the endogenous processing of a native protein antigen. This assay, which is related to the peptide prepulse assay, is performed by incubating APC with native protein antigen for 8 h, after which the pulsed APC are washed and treated with mitomycin C. Those pulsed APC are then combined with AE101 series peptides and T cell hybridomas and are incubated for 24 h. After that incubation, an aliquot of the culture supernatant is transferred to a second culture to measure T cell stimulation, as reflected in the effect of released interleukins on the growth of an interleukin-dependent, indicator cell line. During the 8 h incubation with native protein antigen, the protein antigen is taken into the APC. The native protein enters the processing pathway within the APC, where it is enzymatically cleaved to peptide fragments. Those peptide fragments with high affinity for the particular MHC class II molecules produced by the APC form antigenic peptide/MHC class II complexes which are transported to the cell surface. At the cell surface, the MHC class II molecules are contacted by the AE101 peptides, which cause the release of the antigenic peptide by the same mechanism proposed for the “peptide prepulse” assay above.
The “processed antigen assay” was carried out under essentially the same conditions as the “peptide prepulse assay”, with the following modifications. Untreated APC were incubated at 1×10^6/mL in 24-well plates (1 mL/well) with native protein antigen for 8 h. Following that incubation, the pulsed APC were washed, treated with mitomycin C, and washed again. AE101 series peptide was added at 64 μM, 16 μM, 4 μM, and 1 μM concentrations for 24 h in the presence of the T cell hybridoma specific for the antigenic peptide. Interleukin release from these cultures was measured by proliferation of HT-2 cells to interleukins in supernatants transferred from the primary culture. The baseline T cell response was measured by culturing T hybridoma cells with the native antigen-prepulsed APC in the absence of AE101 series peptides.
The “processed antigen assay” was carried out under essentially the same conditions as the “peptide prepulse” assay, with the following modifications. Untreated APC were incubated at 1×10^6/mL in 24-well plates (1 mL/well) with native protein antigen for 8 h. Following incubation, the pulsed APC were washed, treated with mitomycin C, and were washed again. The assay conditions were then as described for “peptide prepulse” above. The baseline T cell response was measured by culturing T hybridoma cells with the native antigen-prepulsed APC in the absence of AE101 peptides.
Table 2.9: Activities of substitution series at Leucine^80 in AE114 in a processed antigen assay. […] The results in this assay constitute, relatively, a mirror image of the result in the simultaneous assay (Example 1, Table 7) and parallel those of the antigenic peptide prepulse assay (Example 5, Table 24). Untreated APC were incubated with native HEL, instead of antigenic peptide, for 8 h. After incubation, the pulsed cells were washed and mitomycin C treated before being cocultured with AE-peptides and T cell hybridomas. Wells containing only T cells and native HEL-prepulsed APC were used to determine the Baseline response, or 1, in the absence of AE peptides. The concentration of AE peptide used was 64 μM for these assays. The supernatant dilutions used in the HT-2 cell assay were 1:4 (first value) and 1:8 (second value).

[1] = Table 32, native HEL prepulse 20 μM, supernatant dilution 1:4
[2] = native HEL prepulse 10 μM, supernatant dilution 1:4
[3] = Table 30, native HEL prepulse 10 μM, supernatant dilution 1:8

Ac-Y K MKLPKSAK-NH2 [AE134]
T cell response relative to baseline (None = 1.0), E^d [1]: 0.50

Ac-ARNKLPK-NH2 [AE344]
T cell response relative to baseline (None = 1.00), E^d [2]: 0.76

Ac-LR (mL) KLPK-NH2 [AE302]
T cell response relative to baseline (None = 1.0), E^d [3]: 0.51

Ac-LRMK Q PK-NH2 (Ac-LRMKQPK-NH2) [AE233]
T cell response relative to baseline (None = 1.0), 5 μM HEL E^d, first value: 0.48, | T cell response relative to baseline (None = 1.0), 5 μM HEL E^d, second value: 0.36 | T cell response relative to baseline (None = 1.0), 10 μM HEL E^d, first value (native HEL prepulse 10 μM): 0.53, | T cell response relative to baseline (None = 1.0), 10 μM HEL E^d, second value (native HEL prepulse 10 μM): 0.47 | T cell response relative to baseline (None = 1.0), 20 μM HEL E^d, first value (native HEL prepulse 20 μM): 0.74, | T cell response relative to baseline (None = 1.0), 20 μM HEL E^d, second value (native HEL prepulse 20 μM): 0.68

Ac-LR[Orn]KLPK-NH2 [AE195]
T cell response relative to baseline (None = 1.00), E^d [2]: 0.31

Ac-LR (mL) KYPK-NH2 [AE303]
T cell response relative to baseline (None = 1.0), E^d [3]: 0.82

Ac-LRLKyPK-NH2 [AE308]
T cell response relative to baseline (None = 1.0), E^d [3]: 0.60

Ac-L[Cit]MKNPK-NH2 [AE342]
T cell response relative to baseline (None = 1.00), E^d [2]: 0.64

Ac-ARNKNPF-NH2 [AE347]
T cell response relative to baseline (None = 1.00), E^d [2]: 0.80

Ac-LRNKNPK-NH2 [AE349]
T cell response relative to baseline (None = 1.00), E^d [2]: 0.64

Ac-LRMK E PK-NH2 (Ac-LRMKEPK-NH2) [AE231]
T cell response relative to baseline (None = 1.0), 5 μM HEL E^d, first value: 0.96, | T cell response relative to baseline (None = 1.0), 5 μM HEL E^d, second value: 0.85 | T cell response relative to baseline (None = 1.0), 10 μM HEL E^d, first value (native HEL prepulse 10 μM): 0.94, | T cell response relative to baseline (None = 1.0), 10 μM HEL E^d, second value (native HEL prepulse 10 μM): 0.83 | T cell response relative to baseline (None = 1.0), 20 μM HEL E^d, first value (native HEL prepulse 20 μM): 1.0 | T cell response relative to baseline (None = 1.0), 20 μM HEL E^d, second value (native HEL prepulse 20 μM): 1.1

Ac-LRMKLP F-NH2 (Ac-LRMKLPF-NH2) [AE248]
T cell response relative to baseline (None = 1.00), E^d [2]: 0.30

Ac-Y[Cit]MKLPKSAK-NH2 [AE131]
T cell response relative to baseline (None = 1.00), E^d [2]: 0.49

Ac-LR (mL) KyPK-NH2 [AE304]
T cell response relative to baseline (None = 1.0), E^d [3]: 0.77

Ac- (mL) RMKLPK-NH2 [AE174]
T cell response relative to baseline (None = 1.0), E^d [3]: 0.86

Ac-LR HArg KLPK-NH2 [AE197]
T cell response relative to baseline (None = 1.0), E^d [1]: 0.45

Ac-LRLKYPk-NH2 [AE307]
T cell response relative to baseline (None = 1.0), E^d [3]: 0.48

Ac-LRMKLP k-NH2 [AE166]
T cell response relative to baseline (None = 1.0), E^d [3]: 0.36

Ac-LR L KLPK-NH2 (Ac-LRLKLPK-NH2; not fully specified; printed as Ac-LR L KLPK-NH2) [AE206]
T cell response relative to baseline (None = 1.0), E^d [3]: 0.22 | T cell response relative to baseline (None = 1.00), E^d [2]: 0.41 | T cell response relative to baseline (None = 1.0), E^d [1]: 0.46
